Test results published in the supplement of paper PMC11865577.

What was measured:
Test in all cases: pull-down binding Z-score (relative to library population); higher = stronger binding
[1] = test system: G-clamp-N3 (biotin conjugate); conditions: RNA library: Library-1 (pre-miRNA loops + repeats)
How it was run: (§1)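 Biotin-conjugated small molecule (100 pmol) on streptavidin beads was incubated with 1 μg of heat-folded Cy5- or Cy3-end-labelled RNA library in phosphate/NaCl/KCl buffer at 25 °C for 60 min. Following three washes, RNA was eluted with hot SDS and hybridised at 55.5 °C for 20 h to a DNA barcode microarray. The binding value is a Z-score computed from the library mean and standard deviation, after subtraction of beads without compound and averaging of barcoded replicate probes with the highest and lowest excluded.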

[2] = test system: TO-3-N3 (biotin conjugate); conditions: RNA library: Library-2
How it was run: as §1

[3] = test system: TO-3-N3-2 (biotin conjugate); conditions: RNA library: Library-2
How it was run: as §1

[4] = test system: TO-N3 (biotin conjugate); conditions: RNA library: Library-2
How it was run: as §1

[5] = test system: TO-N3-2 (biotin conjugate); conditions: RNA library: Library-2
How it was run: as §1

| Sequence | pull-down binding Z-score [1] | pull-down binding Z-score [2] | pull-down binding Z-score [3] | pull-down binding Z-score [4] | pull-down binding Z-score [5] |
| --- | --- | --- | --- | --- | --- |
| GGUUUCUUAAAAUGGAAUCU [hsa-mir-1255b-1] | 0.385 | -0.382 | 0.0245 | -0.413 | -0.251 |
| GGUUUGCGCCUCAAGAAACC [hsa-mir-1255b-2] | 0.436 | -0.187 | -0.306 | -0.0954 | 0.521 |
| GGUUUUGCCAUCAUGCCAAAAGCU [hsa-mir-548v] | -0.76 | 0.00688 | -0.0997 | 0.277 | 0.259 |
| GGUUUUUACCAUUAAAACC [hsa-mir-548aw] | -0.37 | -0.656 | -0.448 | -1.01 | -1.44 |
| GUAAGAGAGACUCUCGCUUCCUGC [hsa-mir-874] | -1 | 0.0696 | -0.291 | 0.169 | 0.462 |
| GUAGAUUGAAAGCCCUAAUUUUAC [hsa-mir-3941] | -0.805 | -0.486 | 0.306 | -0.0427 | 0.452 |
| GUAGAUUUUAUGUCAC [hsa-mir-892b] | -0.748 | -0.000191 | -0.156 | -0.00927 | 0.0365 |
| GUAUACUGAGCUUAUGUAUGCAUCUGCAUAC [hsa-mir-5591] | 0.344 | 0.357 | 0.0113 | 0.39 | 0.0714 |
| GUAUGAGUGCCACAGAGCCGUCAUAA [hsa-mir-9-3] | -0.99 | 0.938 | -0.231 | 1.39 | 1.73 |
| GUAUGAGUGGUGUGGAGUCUUCAUAA [hsa-mir-9-1] | -0.511 | 0.179 | -0.08 | 0.292 | 0.298 |
| GUAUGAGUGUAUUGGUCUUCAUAA [hsa-mir-9-2] | -0.373 | -0.226 | 0.203 | 0.0907 | 0.481 |
| GUCACAAAUUCAAAUAAAGUGAG [hsa-mir-4693] | -1.04 | 1.05 | 0.544 | 1.03 | 0.598 |
| GUCACCAGCCCUCAUGUACUUGUGAC [hsa-mir-6820] | -1.09 | 0.335 | -0.289 | 0.222 | -0.281 |
| GUCACUGUCUCAAAUCAGUGAC [hsa-mir-549a] | -0.711 | 0.183 | -0.427 | -0.129 | -1.33 |
| GUCAGGAGUGGCUUUCCUGAC [hsa-mir-4462] | -0.232 | 0.414 | -0.271 | 0.279 | -0.397 |
| GUCAGGUGAUGGUGAUAAGGUCAAGGCCUG [hsa-mir-6853] | 0.547 | -0.0611 | -0.0266 | 0.388 | 1.03 |
| GUCAGUCCCAAUCUGAAUCCCACCAAAAUAGGUGGUAGAGGGUUGC [hsa-mir-4290] | -1.14 | -0.204 | 0.249 | 0.0867 | 0.752 |
| GUCAUUACUUUCAAUAGC [hsa-mir-548p] | 0.0268 | -0.59 | -0.254 | -0.684 | -0.372 |
| GUCAUUUCCCAUCACUAAUGGC [hsa-mir-6815] | -0.92 | -0.674 | -0.336 | -0.873 | -0.881 |

| Sequence | pull-down binding Z-score [1] | pull-down binding Z-score [2] | pull-down binding Z-score [3] | pull-down binding Z-score [4] | pull-down binding Z-score [5] |
| --- | --- | --- | --- | --- | --- |
| GUCAUUUUUCUGUGACUGCACAUGGC [hsa-mir-3136] | -0.497 | -0.191 | -0.15 | -0.215 | -0.214 |
| GUCCAUUAGGCUUUGUUAUGGAAACUUCUCCUGAUC [hsa-mir-635] | -0.608 | 0.517 | 0.607 | 0.6 | 0.875 |
| GUCCCAAUACAUGUGGGCC [hsa-mir-586] | -0.0916 | -0.000511 | -0.158 | -0.22 | -0.294 |
| GUCCGGGUGGGUUCCGGCA [hsa-mir-657] | -2.05 | 1.07 | 1.29 | 1.33 | 2.1 |
| GUCCUGACUGCGUGCCAGGGGC [hsa-mir-3650] | 0.903 | -0.235 | -0.518 | -0.175 | 0.488 |
| GUCCUGCCCUCACUGGGAACCCCCUUCCCUCUGGGUACCAG [hsa-mir-1324] | -0.948 | 1.48 | 0.477 | 1.88 | 1.39 |
| GUCUCGGUCCUUUGGAACGUGGC [hsa-mir-4470] | -0.378 | -0.39 | -0.387 | -0.607 | -0.476 |
| GUCUGCCAAAACCUUGGCAGAC [hsa-mir-3913-1] | 0.901 | -0.531 | -0.517 | -1.02 | -1.22 |
| GUCUGCCAAGGUUUUGGCAGAC [hsa-mir-3913-2] | 0.558 | -0.58 | -0.539 | -0.992 | -1.2 |
| GUCUGGCAUUGUCUGAUAUAC [hsa-mir-1294] | 0.671 | 1.12 | 0.316 | 1.2 | 0.408 |
| GUCUGUCACUGGGGAAGUC [hsa-mir-4682] | 1.71 | 0.735 | 0.276 | 1.19 | 0.993 |
| GUCUGUUUUCUUCAUGGUUUUCUGAC [hsa-mir-6759] | 0.125 | -0.779 | -0.481 | -0.999 | -0.557 |
| GUCUUGAUCCCCCACCCCAAGAC [hsa-mir-642b] | -1.37 | -0.257 | -0.299 | -0.41 | 0.091 |
| GUCUUGGGGUGGGGGAUCAAGAC [hsa-mir-642a] | 0.431 | 2.99 | 2.9 | 2.61 | 1.89 |
| GUGAACAUUGCAU [hsa-mir-4301] | -0.223 | -0.353 | -0.219 | -0.356 | -0.237 |
| GUGAACCUGAAUUUGCCUUGGGUUUCCU [hsa-mir-670] | -0.325 | -0.509 | -0.132 | 0.262 | 1.76 |
| GUGACGCCGCGAAGUGCAC [hsa-mir-3147] | 1.18 | 0.25 | 0.172 | 0.406 | 0.997 |
| GUGAGAGAUGCUUCUAGAUCCAGGAGGCAGACCUCAA [hsa-mir-4325] | -0.658 | 0.524 | 0.123 | 0.822 | 0.879 |
